Measurements as given in US20240270857A1 (CHIA TAI TIANQING PHARMACEUTICAL GROUP, published 2024).

B1: BI655130 (antibody, human IgG1, kappa, L234A L235A)
heavy: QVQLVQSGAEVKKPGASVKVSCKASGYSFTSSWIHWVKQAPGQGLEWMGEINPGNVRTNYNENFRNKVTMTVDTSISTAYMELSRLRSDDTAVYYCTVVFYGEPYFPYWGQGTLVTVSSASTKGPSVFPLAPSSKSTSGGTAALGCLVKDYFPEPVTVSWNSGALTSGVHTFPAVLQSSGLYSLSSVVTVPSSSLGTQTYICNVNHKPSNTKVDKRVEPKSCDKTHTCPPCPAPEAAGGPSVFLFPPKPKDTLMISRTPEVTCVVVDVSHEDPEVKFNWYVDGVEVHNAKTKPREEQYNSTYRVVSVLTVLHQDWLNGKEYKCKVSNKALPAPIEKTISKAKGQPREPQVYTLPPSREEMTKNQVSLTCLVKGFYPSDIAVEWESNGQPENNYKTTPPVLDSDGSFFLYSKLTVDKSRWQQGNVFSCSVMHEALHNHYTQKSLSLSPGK
light: QIVLTQSPGTLSLSPGERATMTCTASSSVSSSYFHWYQQKPGQAPRLWIYRTSRLASGVPDRFSGSGSGTDFTLTISRLEPEDAATYYCHQFHRSPLTFGAGTKLEIKRTVAAPSVFIFPPSDEQLKSGTASVVCLLNNFYPREAKVQWKVDNALQSGNSQESVTEQDSKDSTYSLSSTLTLSKADYEKHKVYACEVTHQGLSSPVTKSFNRGEC
notes: also called Spesolimab
B2: chimeric 84C4 antibody (antibody, human IgG4 S228P, kappa)
heavy: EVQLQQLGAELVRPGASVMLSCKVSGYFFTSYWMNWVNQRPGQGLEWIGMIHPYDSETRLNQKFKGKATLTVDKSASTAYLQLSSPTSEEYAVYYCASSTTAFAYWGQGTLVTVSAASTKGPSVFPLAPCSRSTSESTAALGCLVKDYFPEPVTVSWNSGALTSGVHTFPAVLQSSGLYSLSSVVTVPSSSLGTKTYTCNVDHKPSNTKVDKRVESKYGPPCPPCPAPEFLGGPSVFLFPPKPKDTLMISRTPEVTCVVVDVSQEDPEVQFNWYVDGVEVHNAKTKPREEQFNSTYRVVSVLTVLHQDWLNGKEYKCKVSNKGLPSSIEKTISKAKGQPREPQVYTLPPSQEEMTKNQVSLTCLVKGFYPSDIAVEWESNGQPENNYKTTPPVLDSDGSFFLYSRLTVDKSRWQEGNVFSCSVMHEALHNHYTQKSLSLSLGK
light: DILMTQSPSSLSASLGERVSLTCRASQDIGNALNWLQQAPDGTIKRLIYATSSLDPGVPKRFSGSRSGSDYSLTISSLASEDFVYYYCLQYASSPYTFGGGTKLEIKRTVAAPSVFIFPPSDEQLKSGTASVVCLLNNFYPREAKVQWKVDNALQSGNSQESVTEQDSKDSTYSLSSTLTLSKADYEKHKVYACEVTHQGLSSPVTKSFNRGEC
notes: Mouse variable regions on human IgG4 / kappa; also called xi84C4
B3: chimeric 72C1 antibody (antibody, human IgG4 S228P, kappa)
heavy: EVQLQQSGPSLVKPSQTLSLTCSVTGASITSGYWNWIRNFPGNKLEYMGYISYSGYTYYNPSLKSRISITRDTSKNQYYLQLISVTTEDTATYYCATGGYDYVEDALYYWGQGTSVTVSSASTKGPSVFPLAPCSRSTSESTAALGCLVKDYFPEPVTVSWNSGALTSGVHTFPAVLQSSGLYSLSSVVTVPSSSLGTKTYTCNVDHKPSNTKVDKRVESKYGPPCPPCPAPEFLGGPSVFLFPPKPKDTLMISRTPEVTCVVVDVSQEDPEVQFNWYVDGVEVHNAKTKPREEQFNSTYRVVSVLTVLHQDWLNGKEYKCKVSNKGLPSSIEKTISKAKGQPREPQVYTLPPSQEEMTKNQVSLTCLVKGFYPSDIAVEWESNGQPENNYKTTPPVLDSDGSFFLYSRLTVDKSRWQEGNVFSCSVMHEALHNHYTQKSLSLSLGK
light: EILLTQSPAIMSATLGEKVTMSCRASSNVRYMYWYQLKSGASPKLWIYLTSNLASGVPARFSGSGSGTSYSLTISSVEAEDAATYFCQQFTTSPYTFGGGTKLEIKRTVAAPSVFIFPPSDEQLKSGTASVVCLLNNFYPREAKVQWKVDNALQSGNSQESVTEQDSKDSTYSLSSTLTLSKADYEKHKVYACEVTHQGLSSPVTKSFNRGEC
notes: Mouse variable regions on human IgG4 / kappa; also called xi72C1
B4: hz84C4-2.3 (antibody, human IgG4 S228P, kappa, V domains shown)
VH: QVQLVQSGAEVKKPGASVKVSCKASGYFFTSYWMNWVRQAPGQGLEWMGMIYPYDSETRYAQKFQGRVTMTVDKSTSTVYMELSSLRSEDTAVYYCASSTTAFAYWGQGTLVTVSS
VL: DIQMTQSPSSLSASVGDRVTITCRASQDIGNALNWLQQKPGKAPKRLIYATSSLDPGVPSRFSGSRSGTDYTLTISSLQPEDFATYYCLQYASSPYTFGQGTKVEIKR
notes: Humanized, human IgG4 / kappa
B5: hz84C4-2.4 (antibody, human IgG4 S228P, kappa, V domains shown)
VH: QVQLVQSGAEVKKPGASVKVSCKASGYYFTSYWMNWVRQAPGQGLEWMGMIHPYDSETRLAQKFKGRVTMTVDKSTSTVYMELSSLRSEDTAVYYCASSTTAFAYWGQGTLVTVSS
VL: DIQMTQSPSSLSASVGDRVTITCRASQDIGNALNWLQQKPGKAPKRLIYATSSLDPGVPSRFSGSRSGTDYTLTISSLQPEDFATYYCLQYASSPYTFGQGTKVEIKR
notes: Humanized, human IgG4 / kappa
B6: hz84C4-2.5 (antibody, human IgG4 S228P, kappa, V domains shown)
VH: QVQLVQSGAEVKKPGASVKVSCKVSGYFFTSYWMNWVNQAPGQGLEWMGMIHPYDSETRLAQKFKGRVTMTVDKSTSTVYMELSSLRSEDTAVYYCASSTTAFAYWGQGTLVTVSS
VL: DIQMTQSPSSLSASVGDRVTITCRASQDIGNALNWLQQKPGKAPKRLIYATSSLDPGVPSRFSGSRSGTDYTLTISSLQPEDFATYYCLQYASSPYTFGQGTKVEIKR
notes: Humanized, human IgG4 / kappa

Tests used:
[1] = molecular target: T1, human IL-36R overexpressed on 293T-hIL36R-NFκB cells (human, UniProt Q9HB29 20-575); assay: FACS on 293T-hIL36R-NFκB cells, ratio of MFI to background MFI
T1 construct: Entry includes the signal peptide; also called IL1RL2; IL-1Rrp2
T1 sequence: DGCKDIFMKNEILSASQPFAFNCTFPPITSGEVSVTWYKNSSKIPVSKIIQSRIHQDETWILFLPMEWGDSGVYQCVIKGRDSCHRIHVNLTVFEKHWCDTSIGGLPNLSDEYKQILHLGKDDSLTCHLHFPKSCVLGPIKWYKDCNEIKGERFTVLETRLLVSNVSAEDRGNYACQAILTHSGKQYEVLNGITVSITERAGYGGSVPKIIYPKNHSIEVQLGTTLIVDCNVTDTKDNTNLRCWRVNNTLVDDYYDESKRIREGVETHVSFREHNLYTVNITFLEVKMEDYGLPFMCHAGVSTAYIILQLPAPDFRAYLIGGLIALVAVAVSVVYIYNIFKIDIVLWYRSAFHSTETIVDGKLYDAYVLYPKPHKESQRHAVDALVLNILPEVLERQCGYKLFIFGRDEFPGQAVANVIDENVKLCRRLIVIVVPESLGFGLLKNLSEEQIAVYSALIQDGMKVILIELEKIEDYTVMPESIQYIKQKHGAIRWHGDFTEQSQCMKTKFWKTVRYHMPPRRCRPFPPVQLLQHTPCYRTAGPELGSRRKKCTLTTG
Method: After the cells was washed with PBS, the cells were resuspended with 100 μL of PBS and then the fluorescence signal was detected using a flow cytometer (BD, Accuri C6). […] The ratio was the ratio of mean fluorescence intensity (MFI) of the experimental group/the background MFI, and the resulting data were analyzed using GraphPad Prism.
Affinity, binding and blocking assays for humanized antibodies hz72C1-1.1, hz72C1-1.2, hz72C1-1.3, hz72C1-2.1, hz72C1-2.2 and hz72C1-2.3 as well as hz84C4-1.1, hz84C4-1.2, hz84C4-1.3, hz84C4-1.4, hz84C4-1.5, hz84C4-2.1, hz84C4-2.2, hz84C4-2.3, hz84C4-2.4 and hz84C4-2.5 were performed according to the methods of Example 4, Example 5. Example 6, Example 7 and Example 8.

[2] = molecular target: T1, human IL-36R overexpressed on …; assay: cell-based or functional assay
[3] = molecular target: T2, IL-36R naturally expressed on OVCAR8 cells and on normal human epidermal keratinocytes (NHK cells) (human, UniProt Q9HB29 20-575); assay: cell-based or functional assay
T2 sequence (looked up): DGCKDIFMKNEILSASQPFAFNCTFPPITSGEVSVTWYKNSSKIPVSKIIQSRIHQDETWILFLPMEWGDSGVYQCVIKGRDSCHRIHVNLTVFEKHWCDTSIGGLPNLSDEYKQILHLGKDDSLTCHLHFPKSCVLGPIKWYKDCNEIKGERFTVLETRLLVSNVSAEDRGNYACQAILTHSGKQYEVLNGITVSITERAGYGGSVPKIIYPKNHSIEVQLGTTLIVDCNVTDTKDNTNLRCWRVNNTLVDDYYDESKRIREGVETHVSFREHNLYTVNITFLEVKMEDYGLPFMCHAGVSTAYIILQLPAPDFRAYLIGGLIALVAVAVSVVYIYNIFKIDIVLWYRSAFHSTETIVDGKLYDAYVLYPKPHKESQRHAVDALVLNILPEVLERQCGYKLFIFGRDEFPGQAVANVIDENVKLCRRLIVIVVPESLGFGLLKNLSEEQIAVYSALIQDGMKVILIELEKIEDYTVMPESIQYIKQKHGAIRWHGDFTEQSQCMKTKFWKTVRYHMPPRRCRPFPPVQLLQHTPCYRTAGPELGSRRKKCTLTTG

[4] = molecular target: T3, Human IL-1Rrp2/IL-1R6 protein, His Tag (ACROBiosystems, IL2-H52H6) (human, UniProt Q9HB29 20-335); assay: ELISA, plate coated with human IL-1Rrp2/IL-1R6 His Tag, HRP-protein A/G, OD450
T3 construct: Bought protein; the soluble protein is likely only the extracellular part; also called hIL-36R; human IL36R antigen; not shown: His tag
T3 sequence: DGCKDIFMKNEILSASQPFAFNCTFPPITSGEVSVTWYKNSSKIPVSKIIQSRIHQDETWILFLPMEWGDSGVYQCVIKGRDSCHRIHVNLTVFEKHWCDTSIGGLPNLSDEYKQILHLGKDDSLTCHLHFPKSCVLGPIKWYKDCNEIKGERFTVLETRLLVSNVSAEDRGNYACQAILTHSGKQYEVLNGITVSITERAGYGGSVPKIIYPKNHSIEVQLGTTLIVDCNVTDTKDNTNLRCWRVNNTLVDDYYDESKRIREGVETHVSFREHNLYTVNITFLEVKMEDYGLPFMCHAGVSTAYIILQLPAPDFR
Method: The binding activity of anti-IL-36R antibodies to IL-36R was analyzed by ELISA using human IL-1Rrp2/IL-1R6 protein, His Tag (ACROBiosystems, IL2-H52H6) and CynoIL36R-ECD mFc (for detection of chimeric and humanized antibodies), and hIL36R-ECD hFc and CynoIL36R-ECD hFc protein (for detection of hybridoma antibodies) as antigens. A 96-well plate (Costar, 9018) was coated with 2 μg/mL antigen at 100 μL/well and incubated overnight at 4° C. After the 96-well plate was washed with a washing buffer (PBS containing 0.05% v/v Tween 20), a blocking buffer (PBS containing 2% bovine serum albumin) was added for blocking at 37° C. for 2 h. After the 96-well plate was washed with the washing buffer, 100 μL of the gradient diluted anti-IL-36R antibody of the present disclosure or the reference antibody BI655130 (the initial concentration of the antibody was 66 nM, 4-fold gradient dilution) was added to each well, and the plate was incubated at room temperature for 1 h. After the 96-well plate was washed with the washing buffer, 100 μL of horseradish peroxidase-conjugated recombinant protein A/G (TheroScientific, 32490) was added to each well, and the plate was incubated at room temperature for 1 h. After the 96-well plate was washed with the washing buffer, 100 μL of a TMB solution (Thermo, 00-4201-56) was added to each well, and the plate was incubated at room temperature for 2 min. Finally, 100 μL of a stop solution (2 N H₂SO₄) was added to each well to stop the reaction. Absorbance was read at 450 nm using a microplate reader (PE, Envision), the resulting data was analyzed using GraphPad Prism, and EC₅₀ was calculated. Binding EC₅₀ of the chimeric anti-IL-36R antibodies to hIL-36R in an ELISA assay is shown in FIG. 1. and binding EC₅₀ of the chimeric anti-IL-36R antibodies to CynoIL-36R in an ELISA assay is shown in FIG. 2. The binding of BI655130 is shown as a control, and the binding of IgG4 is shown as a negative control.

Binder | EC50 [1] | IC50 (M); hIL36α; NFκB-luciferase [2] | IC50 (M); hIL36αβγ; NFκB-luciferase [2] | IC50 (M); hIL36β; NFκB-luciferase [2] | IC50 (M); hIL36γ; NFκB-luciferase [2] | Maximum inhibition rate %; hIL36α; NFκB-luciferase [2] | Maximum inhibition rate %; hIL36αβγ; NFκB-luciferase [2] | Maximum inhibition rate %; hIL36β; NFκB-luciferase [2] | Maximum inhibition rate %; hIL36γ; NFκB-luciferase [2] | IC50 (M); hIL36α; IL-8 production [3] | IC50 (M); hIL36αβγ; IL-8 production [3] | IC50 (M); hIL36β; IL-8 production [3] | IC50 (M); hIL36γ; IL-8 production [3] | Maximum inhibition rate %; hIL36α; IL-8 production [3] | Maximum inhibition rate %; hIL36αβγ; IL-8 production [3] | Maximum inhibition rate %; hIL36β; IL-8 production [3] | Maximum inhibition rate %; hIL36γ; IL-8 production [3] | EC50 [4] | IC50; hIL36γ; IL-8 production [3]
B1 | 9.82 nM | 6.09e-09 M | 2.36e-08 M | 2.45e-09 M | ~1.32e-08 M | 84.5% | 81.2% | 86.7% | 79.2% | 1.6e-11 M | 1.42e-11 M | 2.45e-11 M | 8.12e-12 M | 99.6% | 99.9% | 99.1% | 100% | 0.761 nM | 
B2 |  |  |  |  |  |  |  |  |  |  |  |  |  |  |  |  |  | 0.97 nM | 
B3 |  |  |  |  |  |  |  |  |  |  |  |  |  |  |  |  |  | 2.62 nM | 
B4 | 14.5 nM |  |  |  |  |  |  |  |  | ~6.47e-12 M | ~4.34e-12 M | 3.42e-12 M |  | 28.4% | 40.6% | 18.6% | 41.5% |  | 0.0062 nM
B5 | ~5.26 nM |  |  |  |  |  |  |  |  | 7.52e-12 M | 2.58e-12 M | 7.24e-12 M | 5.15e-12 M | 99.5% | 98.8% | 99.1% | 99.3% |  | 
B6 | ~5.04 nM |  |  |  |  |  |  |  |  | 6.45e-12 M | 4.01e-12 M | 7.06e-12 M | 6.62e-12 M | 100% | 99.2% | 99.4% | 99.7% |  | 
